From patent publication US20220119534A1 (DRAGONFLY THERAPEUTICS, published 2022)
Values belong to the binder of their own block, whether it stands above or below them.

Legend:
[1] = target: T1, recombinant human CLEC12A-His (human, UniProt Q5QGZ9 65-265); assay: SPR screening
T1 construct: also called hCLEC12A-His; hCLEC12A
T1 sequence: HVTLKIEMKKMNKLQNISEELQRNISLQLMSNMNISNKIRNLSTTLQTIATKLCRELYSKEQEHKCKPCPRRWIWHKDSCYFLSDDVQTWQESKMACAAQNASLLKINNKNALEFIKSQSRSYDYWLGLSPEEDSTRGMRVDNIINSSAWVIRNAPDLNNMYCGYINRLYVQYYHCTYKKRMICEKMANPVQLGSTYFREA

[2] = target: T2, de-glycosylated hCLEC12A (human, UniProt Q5QGZ9 65-265, N-linked glycans removed (PNGase F)); assay: SPR
T2 construct: also called PNGase-treated hCLEC12A; De-glycosylated CLEC12A
T2 sequence: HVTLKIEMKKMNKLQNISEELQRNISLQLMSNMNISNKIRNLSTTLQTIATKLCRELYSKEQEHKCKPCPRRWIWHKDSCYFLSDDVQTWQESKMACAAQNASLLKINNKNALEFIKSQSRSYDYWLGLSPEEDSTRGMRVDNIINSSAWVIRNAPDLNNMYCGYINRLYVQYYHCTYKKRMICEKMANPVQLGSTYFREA

[3] = target: T3, de-sialylated hCLEC12A (human, UniProt Q5QGZ9 65-265, terminal sialic acids removed (neuraminidase)); assay: SPR
T3 construct: also called De-sialylated CLEC12A
T3 sequence: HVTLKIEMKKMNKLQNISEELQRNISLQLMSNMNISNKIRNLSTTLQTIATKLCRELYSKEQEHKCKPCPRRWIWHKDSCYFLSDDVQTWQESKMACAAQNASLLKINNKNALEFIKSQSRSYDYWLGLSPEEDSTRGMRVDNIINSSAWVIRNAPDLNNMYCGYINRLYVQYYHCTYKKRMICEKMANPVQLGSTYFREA

[4] = target: T1, recombinant human CLEC12A-His; assay: SPR
[5] = target: T4, Human CLEC12A expressed on cells (Ba/F3-hCLEC12A, PL21, HL60) (human, UniProt Q5QGZ9 1-265); assay: cell-based or functional assay
T4 sequence: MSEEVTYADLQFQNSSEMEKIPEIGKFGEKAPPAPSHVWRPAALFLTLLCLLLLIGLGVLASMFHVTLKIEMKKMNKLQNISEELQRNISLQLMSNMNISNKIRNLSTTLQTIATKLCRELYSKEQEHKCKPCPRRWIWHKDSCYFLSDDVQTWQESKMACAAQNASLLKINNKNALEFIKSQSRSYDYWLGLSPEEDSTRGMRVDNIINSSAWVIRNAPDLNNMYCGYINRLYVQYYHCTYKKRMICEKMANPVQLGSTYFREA

[6] = target: T4, Human CLEC12A expressed on cells …; assay: cell-based or functional assay; remark: listed apart in the source
[7] = target: T5, human CLEC12A expressed on cells (human, UniProt Q5QGZ9 1-265); assay: flow cytometry on Ba/F3-hCLEC12A cells, fold over background
T5 construct: Transduced isogenic cells or endogenous expression on AML cells; also called RMA-hCLEC12A; Ba/F3-hCLEC12A
T5 sequence: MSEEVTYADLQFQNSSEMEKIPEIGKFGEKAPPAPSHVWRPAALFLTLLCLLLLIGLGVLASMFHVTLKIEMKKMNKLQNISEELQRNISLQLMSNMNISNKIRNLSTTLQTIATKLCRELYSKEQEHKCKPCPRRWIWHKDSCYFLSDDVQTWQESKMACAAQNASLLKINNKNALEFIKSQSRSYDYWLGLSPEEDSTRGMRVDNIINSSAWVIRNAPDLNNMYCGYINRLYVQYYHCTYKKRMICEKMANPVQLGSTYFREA
Experimental: (§1) The cells were then incubated with a fluorophore conjugated anti-human IgG secondary antibody and were analyzed by flow cytometry. The mean fluorescence intensity (MFI) values were normalized to secondary antibody only controls to obtain fold over background (FOB) values.
(§2) 100,000 cells were seeded per well into a 96-well plate for FACS staining. Cells were washed with PBS. Cells were incubated in a 1:2000 dilution of live/dead dye in PBS for 15 minutes, then washed with FACS buffer. TriNKETs or mAbs were diluted into FACS buffer, and 50 μl containing diluted TriNKET or mAb was added to cells. Cells were incubated on ice for 20 minutes. After the incubation, cells were washed with FACS buffer. Anti-human IgG-Fc secondary antibody was diluted into FACS buffer, and 50 μl was added per well for detection of the bound TriNKETs or mAbs. Cells were incubated for 20 minutes on ice, then washed with FACS buffer. 50 μl of fixation buffer was added to each well, and cells were incubated for 10 minutes at room temperature. Cells were washed with FACS buffer and resuspended in FACS buffer for analysis with BD FACS Celesta SN #H66034400085, or BD FACS Celesta SN #H66034400160. Cells of interest were identified using FSC vs. SSC plot, and an appropriately shaped gate was drawn around the cells. Within the gated cells, doublet cells were removed by viewing FSC-H vs FSC-A plot. Within the single cell population, live cells were gated. Within the live gate, the mean fluorescence intensity (MFI) of each sample and the secondary-only control was calculated. Fold-over-background (FOB) was calculated as the ratio of test article MFI over secondary-only background MFI. Data were fit to a four-parameter non-linear regression curve using GraphPad Prism 7.0.

[8] = target: T5, human CLEC12A expressed on cells; assay: flow cytometry on HL-60 cells, fold over background
Experimental: as §1, §2

[9] = target: T5, human CLEC12A expressed on cells; assay: flow cytometry on RMA-hCLEC12A cells
[10] = target: T5, human CLEC12A expressed on cells; assay: flow cytometry, hCLEC12A+ Ba/F3

Kd [1]: 1.07 nM
koff [1]: 0.00102 s⁻¹
kon [1]: 950000 M⁻¹ s⁻¹
B1: m9F11-hIgG1 (antibody, V domains shown)
VH: EVQLQESGGGLVQPGGSRKLSCAASGFTFNSFGMHWVRQAPEKGLEWVAFISSGSTSIYYANTVKGRFTISRDNPKNTLFLQMTSLRSEDTAMYYCARDGYPTGGAMDYWGQGTSVTVSS
VL: DIKMTQSPSSMYASLGERVTITCKASQDIYNYLSWFQLKPGKSPRPLIYRANILVSGVPSKFSGSGSGQDYSLTINSLEYEDLGIYYCLQFDAFPFTFGSGTKLEIK
notes: also called chimeric parent mouse 9F11.B7 mAb

EC50 (read off the curve) [9]: ~3 nM
EC50 [10]: 14.3 nM
Max MFI [10]: 39700 MFI
B5: hcFAE-A49.CLL1-Merus (bispecific antibody, V domains shown)
VH 1: EVQLVQSGAEVKKPGASVKVSCKASGYTFTSYYMHWVRQAPGQGLEWMGIINPSGGSTSYAQKFQGRVTMTRDTSTSTVYMELSSLRSEDTAVYYCARGNYGDEFDYWGQGTLVTVSS
VL 1: not shown
VH 2: EVQLVESGGGLVKPGGSLRLSCAASGFTFSSYSMNWVRQAPGKGLEWVSSISSSSSYIYYADSVKGRFTISRDNAKNSLYLQMNSLRAEDTAVYYCARGAPMGAAAGWFDPWGQGTLVTVSS
VL 2: DIQMTQSPSSVSASVGDRVTITCRASQGISSWLAWYQQKPGKAPKLLIYAASSLQSGVPSRFSGSGSGTDFTLTISSLQPEDFATYYCQQGVSFPRTFGGGTKVEIK
notes: Duobody TriNKET: CLEC12A Fab of Merus CLL1 and NKG2D Fab A49; also called hcFAE-A49.CLL-Merus; control CLEC12A-TriNKET

The remaining lines, values behind:

B2: Murine F3'-9F11 (other)
VH: EVQLQESGGGLVQPGGSRKLSCAASGFTFNSFGMHWVRQAPEKGLEWVAFISSGSTSIYYANTVKGRFTISRDNPKNTLFLQMTSLRSEDTAMYYCARDGYPTGGAMDYWGQGTSVTVSS
VL: DIKMTQSPSSMYASLGERVTITCKASQDIYNYLSWFQLKPGKSPRPLIYRANILVSGVPSKFSGSGSGQDYSLTINSLEYEDLGIYYCLQFDAFPFTFGSGTKLEIK
notes: the text calls it clone 9F11.B7; F3' construct (scFv order, Fc, NKG2D Fab) not spelled out
Kd [2]: 0.34 nM
koff [2]: 0.000374 s⁻¹
kon [2]: 1.11e+06 M⁻¹ s⁻¹
Kd [3]: 0.62 nM
koff [3]: 0.00098 s⁻¹
kon [3]: 1.58e+06 M⁻¹ s⁻¹
Kd [4]: 0.96 nM
koff [4]: 0.00111 s⁻¹
kon [4]: 1.15e+06 M⁻¹ s⁻¹

B3: AB0305 mAb (Humanized 1739 anti-CLEC12A mAb) (antibody, V domains shown)
VH: QLQLQESGPGLVKPSETLSLTCTVSGFSLTNYGLHWIRQPPGKGLEWIGVIWVGGATDYNPSLKSRVTISVDTSKNQFSLKLSSVQAADTAVYYCAKGDYGDTLDYWGQGTLVTVSS
VL: DIQMTQSPSSLSASVGDRVTITCHASQNINFWLSWYQQKPGKAPKLLIYEASNLHTGVPSRFSGSGSGTDFTLTISSLQPEDFATYYCQQSHSYPLTFGSGTKLEIK
% Max, ADCP activity of M0 macrophages against PL21 cells [5]: 10%
EC50, ADCP activity of M0 macrophages against PL21 cells [5]: 0.02 nM
EC50, primary NK mediated cytotoxic killing of PL21 cells [6]: 1.85 nM

B4: AB0305 (antibody, IgG1, V domains shown)
VH: QLQLQESGPGLVKPSETLSLTCTVSGFSLTNYGLHWIRQPPGKGLEWIGVIWVGGATDYNPSLKSRVTISVDTSKNQFSLKLSSVQAADTAVYYCAKGDYGDTLDYWGQGTLVTVSS
VL: DIQMTQSPSSLSASVGDRVTITCHASQNINFWLSWYQQKPGKAPKLLIYEASNLHTGVPSRFSGSGSGTDFTLTISSLQPEDFATYYCQQSHSYPLTFGSGTKLEIK
notes: hIgG1 mAb; also called Humanized 1739 anti-CLEC12A mAb; parental mAb of AB0089
EC50 (read off the curve) [7]: ~0.6 nM
EC50 (read off the curve) [8]: ~0.1 nM
